Target: F-ΔC2-WWP2 (UniProt O00308)
Assay: fluorescence polarisation

Kd: 20 µM
Substance: non-phosphorylated PTEN (n-PTEN) (natural protein)

Source: PMC6093203
